T1: RuvA wild type (Escherichia coli, UniProt P0A809 1-203)
T1 sequence: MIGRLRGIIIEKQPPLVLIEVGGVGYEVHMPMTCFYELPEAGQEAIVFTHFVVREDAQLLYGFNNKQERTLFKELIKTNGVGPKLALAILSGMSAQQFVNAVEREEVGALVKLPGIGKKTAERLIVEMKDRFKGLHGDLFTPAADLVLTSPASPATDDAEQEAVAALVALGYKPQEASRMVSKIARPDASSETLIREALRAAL

T2: wild-type RuvB protein (E. coli) (UniProt P0A812)
T2 sequence: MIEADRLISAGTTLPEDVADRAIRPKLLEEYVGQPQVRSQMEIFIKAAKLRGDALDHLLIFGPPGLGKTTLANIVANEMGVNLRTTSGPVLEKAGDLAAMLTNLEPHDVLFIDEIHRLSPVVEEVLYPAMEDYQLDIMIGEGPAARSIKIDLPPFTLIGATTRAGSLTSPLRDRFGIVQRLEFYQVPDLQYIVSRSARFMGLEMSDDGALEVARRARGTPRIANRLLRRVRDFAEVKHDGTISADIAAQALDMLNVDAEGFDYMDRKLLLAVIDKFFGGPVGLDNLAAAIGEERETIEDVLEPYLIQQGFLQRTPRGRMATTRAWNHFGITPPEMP


Assays:
[1] = target: T1, RuvA wild type; assay: EMSA; EDTA; complexes I and II; EMSA with ~4-5 ng labelled DNA; 5 mM EDTA (gel 0.5x TBE) or 3 mM MgCl2 without EDTA (gel 0.5x TB + 200 uM MgCl2); buffer as in cited ref 18; salt, pH and temperature not stated; conditions: protein: recombinant; chain copies: 4; label: 5' IRD700 on S24 (IT.01); four-way junction of 4 strands
[2] = target: T2, wild-type RuvB protein (E. coli)
[3] = target: the molecule itself; assay: SDS-PAGE without boiling the protein samples; purified RuvA mutant proteins run on SDS-PAGE without boiling; tetramer band under denaturing gel conditions; data not shown

Binder | stoichiometry N [3] | further results
X12 (synthetic Holliday junction) (structured_DNA) DNA 1: GACGCTGCCGAATTCTACCAGTGCCTTGCTAGGACATCTTTGCCCACCTGCAGGTTCACCC DNA 2: TGGGTGAACCTGCAGGTGGGCAAAGATGTCCTAGCAATGTAATCGTCAAGCTTTATGCCGTT DNA 3: CAACGGCATAAAGCTTGACGATTACATTGCTAGGACATGCTGTCTAGAGGATCCGACTATCGA DNA 4: ATCGATAGTCGGATCCTCTAGACAGCATGTCCTAGCAAGGCACTGGTAGAATTCGGCAGCGT | – | binding result [1]: binds
wild-type RuvA (natural protein) MIGRLRGIIIEKQPPLVLIEVGGVGYEVHMPMTCFYELPEAGQEAIVFTHFVVREDAQLLYGFNNKQERTLFKELIKTNGVGPKLALAILSGMSAQQFVNAVEREEVGALVKLPGIGKKTAERLIVEMKDRFKGLHGDLFTPAADLVLTSPASPATDDAEQEAVAALVALGYKPQEASRMVSKIARPDASSETLIREALRAAL | – | RuvA concentration required for RuvB (250 nM) to unwind 50% of a labelled 52-mer annealed to phiX174 ssDNA (DNA helicase assay) [2]: 100 nM
RuvAz87 (natural protein, E. coli, UniProt P0A809 1-203, looked up, RuvA of E. coli with the two mutations N79D N100D; Purification steps and expression construct of the mutant proteins are in the supplementary material (Text S1); also called ruvAz87 (N79D N100D); ruvA87; source: over-expressed in E. coli and purified) MIGRLRGIIIEKQPPLVLIEVGGVGYEVHMPMTCFYELPEAGQEAIVFTHFVVREDAQLLYGFNNKQERTLFKELIKTDGVGPKLALAILSGMSAQQFVDAVEREEVGALVKLPGIGKKTAERLIVEMKDRFKGLHGDLFTPAADLVLTSPASPATDDAEQEAVAALVALGYKPQEASRMVSKIARPDASSETLIREALRAAL | 4 | –
RuvAz3 (natural protein, E. coli, UniProt P0A809 1-203, looked up, RuvA of E. coli with the three mutations H29R K129E F140S; Purification steps and expression construct of the mutant proteins are in the supplementary material (Text S1); also called ruvAz3 (H29R K129E F140S); pGB-ruvAz3; source: over-expressed in E. coli and purified) MIGRLRGIIIEKQPPLVLIEVGGVGYEVRMPMTCFYELPEAGQEAIVFTHFVVREDAQLLYGFNNKQERTLFKELIKTNGVGPKLALAILSGMSAQQFVNAVEREEVGALVKLPGIGKKTAERLIVEMEDRFKGLHGDLSTPAADLVLTSPASPATDDAEQEAVAALVALGYKPQEASRMVSKIARPDASSETLIREALRAAL | 4 | –
